Results taken from patent US20240101677A1 (Innovent, published 2024).

B1: Isotype-IgG1-Fc-LALA (antibody)
variable region (heavy or light not stated; listed first): EVRLLESGGGLVQPGGSLRLSCAASGFTFSNYAMGWVRQAPGKCLEWVSAISGSGGSTYYADSVKGRFTTSRDDSKNALYLQMNSLRAEDTAVYYCARGGPGWYAADVWGQGTTVTVSS
variable region (heavy or light not stated; listed second): DIQMTQSPSSLSASVGDRVTITCRASQSISSYLNWYQQKPGKAPKLLIYAASSLQSGVPSRFSGSGSGTDFTLTISSLQPEDFATYYCQQADLPAFAFGCGTKVEIK
notes: also called anti-Hen Egg Lysozyme (HEL) antibody; negative control
B2: 16A067 (bispecific antibody, human IgG1, kappa, L234A L235A)
heavy 1: not shown
heavy 2: EVQLVESGGGLVQPGRSLRLSCAASGFTFGDYAIHWVRQAPGKGLEWVSGISWDSSSIAYADSVKGRFTISRDNAKNSLYLQMNSLRAEDTAVYYCAKDSPVRDSFGSIAFDIWGQGTMVTVSSASTKGPSVFPLAPSSKSTSGGTAALGCLVKDYFPEPVTVSWNSGALTSGVHTFPAVLQSSGLYSLSSVVTVPSSSLGTQTYICNVNHKPSNTKVDKKVEPKSCDKTHTCPPCPAPEAAGGPSVFLFPPKPKDTLMISRTPEVTCVVVDVSHEDPEVKFNWYVDGVEVHNAKTKPREEQYNSTYRVVSVLTVLHQDWLNGKEYKCKVSNKALPAPIEKTISKAKGQPREPQVCTLPPSRDELTKNQVSLSCAVKGFYPSDIAVEWESNGQPENNYKTTPPVLDSDGSFFLVSKLTVDKSRWQQGNVFSCSVMHEALHNHYTQKSLSLSPGK
light: not shown
notes: 1+1 knob-into-hole format, sdAb-Fc arm and Fab-Fc arm, LALA; also called anti-CD16A/BCMA bispecific antibody (Y88A3 x ADI384-56)
B3: 16A068 (bispecific antibody, human IgG1, kappa, L234A L235A)
heavy 1: not shown
heavy 2: B2 heavy 2
light: not shown
notes: 1+1 knob-into-hole format, sdAb-Fc arm and Fab-Fc arm, LALA; also called anti-CD16A/BCMA bispecific antibody (Y99F6 x ADI384-56)
B4: 16A069 (bispecific antibody, human IgG1, kappa, L234A L235A)
heavy 1: not shown
heavy 2: B2 heavy 2
light: not shown
notes: 1+1 knob-into-hole format, sdAb-Fc arm and Fab-Fc arm, LALA; also called anti-CD16A/BCMA bispecific antibody (Y100D6 x ADI384-56)
B5: 16A070 (bispecific antibody, human IgG1, kappa, L234A L235A)
heavy 1: not shown
heavy 2: B2 heavy 2
light: not shown
notes: 1+1 knob-into-hole format, sdAb-Fc arm and Fab-Fc arm, LALA; also called anti-CD16A/BCMA bispecific antibody (Y95H1 x ADI384-56)

Experiments:
[1] = target: T1, CD16A on human primary NK cells (human, UniProt P08637 17-254); experiment: flow cytometry (MFI, PE-anti-human Fc) on human primary NK cells, donor SLB190084
T1 construct: whole, on cells; also called primary natural killer (NK) cells
T1 sequence (P08637 17-254): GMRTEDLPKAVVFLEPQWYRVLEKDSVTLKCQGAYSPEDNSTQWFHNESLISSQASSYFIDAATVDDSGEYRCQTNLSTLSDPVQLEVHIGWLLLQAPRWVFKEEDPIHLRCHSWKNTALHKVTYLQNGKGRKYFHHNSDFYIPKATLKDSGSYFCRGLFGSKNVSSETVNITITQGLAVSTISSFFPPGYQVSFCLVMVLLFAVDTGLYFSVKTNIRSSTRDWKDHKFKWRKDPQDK
Procedure: (§1) Human PBMC cells were thawed (Sailybio, SLB190084 & SLB190071), and NK cells were enriched and isolated using a human NK cell enrichment kit (Stemcell, 19055) and centrifuged at 400 g for 5 min. The supernatant was removed, and the cells were resuspended in PBS. After counting, the cells were adjusted to a density of 2×10⁶ cells/mL, and the cell suspension was added to a U-bottom 96-well plate at 100 μL/well. Then, the test antibody was added to make a final concentration of 100 nM, and subjected to a 6-fold dilution to obtain 10 gradients. The mixture was left to stand on ice for a reaction for 1 h. The mixture was centrifuged at 300 g for 5 min, and the supernatant was removed. The cells were washed once with PBS. The mixture was centrifuged at 300 g for 5 min, and PBS was removed. 100 μL of PE-anti-human Fc antibody (Southern Biotech, 2040-09) diluted at a ratio of 1:200 was added to each well. The mixture was incubated on ice for 30 min in the dark. The mixture was centrifuged at 400 g for 5 min, and the supernatant was removed. The cells were washed twice with PBS, and then resuspended in 100 μL of PBS. A fluorescence shift assay was performed by using a flow cytometer (BD, Facscelesta). […] The control antibody used in FIGS. 2A and 2B was the same as that in Example 5.

[2] = target: T2, human CD16A (type 158V) on GS-CHO cells (human, UniProt P08637 17-254); experiment: flow cytometry (MFI, PE-anti-human Fc) on GS-CHO cells expressing human CD16A (type 158V)
T2 construct: whole, on cells; also called GS-CHO cells expressing human CD16A
T2 sequence (P08637 17-254 F176V): as the sequence (P08637 17-254) above, with F160V counted along it
Procedure: After counting, the cells were adjusted to a density of 2×10⁶ cells/mL, and the cell suspension was added to a U-bottom 96-well plate at 100 μL/well. […] The mixture was centrifuged at 300 g for 5 min, and the supernatant was removed. The cells were washed once with PBS. The mixture was centrifuged at 300 g for 5 min, and PBS was removed. 100 μL of PE-anti-human Fc antibody (Southern Biotech, 2040-09) diluted at a ratio of 1:200 was added to each well. The mixture was incubated on ice for 30 min in the dark. The mixture was centrifuged at 400 g for 5 min, and the supernatant was removed. The cells were washed twice with PBS, and then resuspended in 100 μL of PBS. A fluorescence shift assay was performed by using a flow cytometer (BD, Facscelesta).

[3] = target: T1, CD16A on human primary NK cells; experiment: flow cytometry (MFI, PE-A) on human primary NK cells, donor SLB190071
Procedure: as §1
In this example, the binding of anti-CD16A/HER2 and anti-CD16A/BCMA bispecific antibodies (subjected to gradient dilution) of the present invention to primary NK cells was assayed by flow cytometry. The assay method was the same as that in Example 6.

Binder | binding result [1] | binding result [2] | EC50 [3] [nM]
B1 | no binding (tested: log 2 (100 nM)) | no binding (tested: log 2.8 (about 600 nM)) | –
B2 | – | – | 14.2
B3 | – | – | 50.5
B4 | – | – | 15.3
B5 | – | – | 7.96
